The values below come from article PMC10328077.

In test [1] the target is NT647-labeled apoE2(1–165) fragment (human). The test is described as follows: MST; labelled apoE2(1-165) at 2.8 nM held constant, FH402H, FH402Y, FH1-4 or FH19-20 titrated; n = 3; Kd fit model of normalized (ΔFnorm) values; 150 mM KCl, 25 mM HEPES pH 7.5, 0.01% Tween 20, 0.01% NaN3.
For the next test, the target named is NT647-FH5-7 402Y (human) (UniProt P08603). The test is described as follows: MST; NT647-FH5-7 402Y at 35 nM held constant, apoE2, apoE3 or apoE4 titrated; n = 3; Kd fit model of normalized (ΔFnorm) values; 150 mM KCl, 25 mM HEPES pH 7.5, 0.01% Tween 20, 0.01% NaN3.
The target in test [2] is complement factor H (FH), NT647-labeled full-length FH (human) (UniProt P08603). The test is described as follows: MST; FH at 2 nM held constant (NT647-labelled by the legend of Fig 1I), native apoE2 or native apoE4 titrated; n = 3; Kd fit model of normalized (ΔFnorm) values; 150 mM KCl, 25 mM HEPES pH 7.5, 0.01% Tween 20, 0.01% NaN3.

As a reminder, the Kd is the equilibrium constant for the complex coming apart. Lower therefore signals higher affinity.

NT647-FH5-7 402Y (human), sequence (P08603 19-1231): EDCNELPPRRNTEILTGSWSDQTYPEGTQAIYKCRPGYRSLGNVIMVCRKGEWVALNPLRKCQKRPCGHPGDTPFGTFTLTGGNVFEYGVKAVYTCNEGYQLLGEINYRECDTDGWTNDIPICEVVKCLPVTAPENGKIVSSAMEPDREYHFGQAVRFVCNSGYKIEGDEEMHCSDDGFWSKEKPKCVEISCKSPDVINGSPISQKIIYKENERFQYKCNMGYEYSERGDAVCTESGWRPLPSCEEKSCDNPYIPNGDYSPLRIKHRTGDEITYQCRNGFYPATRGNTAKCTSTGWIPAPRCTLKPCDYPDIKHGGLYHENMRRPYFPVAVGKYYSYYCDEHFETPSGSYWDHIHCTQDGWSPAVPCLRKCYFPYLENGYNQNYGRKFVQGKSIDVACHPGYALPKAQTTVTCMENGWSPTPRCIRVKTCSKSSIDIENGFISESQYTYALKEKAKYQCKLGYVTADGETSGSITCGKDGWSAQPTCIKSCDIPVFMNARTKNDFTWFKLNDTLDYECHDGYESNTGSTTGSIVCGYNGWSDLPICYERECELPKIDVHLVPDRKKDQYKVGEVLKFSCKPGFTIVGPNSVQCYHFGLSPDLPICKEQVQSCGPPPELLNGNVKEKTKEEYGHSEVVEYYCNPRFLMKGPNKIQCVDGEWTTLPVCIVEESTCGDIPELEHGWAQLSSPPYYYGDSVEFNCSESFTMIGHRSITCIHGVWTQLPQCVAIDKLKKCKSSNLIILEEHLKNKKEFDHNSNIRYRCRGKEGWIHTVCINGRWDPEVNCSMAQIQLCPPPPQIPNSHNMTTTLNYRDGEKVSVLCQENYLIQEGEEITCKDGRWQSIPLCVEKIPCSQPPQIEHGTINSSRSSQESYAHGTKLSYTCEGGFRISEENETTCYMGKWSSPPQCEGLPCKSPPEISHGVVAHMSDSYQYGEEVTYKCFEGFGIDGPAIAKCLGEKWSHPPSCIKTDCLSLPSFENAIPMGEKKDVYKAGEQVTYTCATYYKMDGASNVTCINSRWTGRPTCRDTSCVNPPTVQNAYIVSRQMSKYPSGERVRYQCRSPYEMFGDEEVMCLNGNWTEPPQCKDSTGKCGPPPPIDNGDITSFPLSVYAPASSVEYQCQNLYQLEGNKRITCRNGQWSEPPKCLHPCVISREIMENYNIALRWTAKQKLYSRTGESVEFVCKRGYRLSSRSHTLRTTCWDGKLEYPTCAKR
complement factor H (FH), NT647-labeled full-length FH (human), sequence (P08603 19-1231): as above
FH402Y, sequence (P08603 19-1231): as above
FH402H, sequence (P08603 19-1231 Y402H): as the sequence (P08603 19-1231) above, with Y384H counted along it

Turning to “FH402Y (from UniProt P08603 19-1231) (natural protein)”, the Kd in test [1] was determined as 253 nM.
Consider “apoE4 (from UniProt P02649 19-317) (natural protein)”, for which the Kd with NT647-FH5-7 402Y (human) was determined as 1940 nM. That is a single-digit micromolar value.
In turn, FH1-4 (domain or fragment) had a Kd in test [1] of 999 nM. This lies in the sub-micromolar range.
In test [2], “native apoE4 (from UniProt P02649 19-317) (natural protein)” came in with a Kd of 300 nM.
In turn, “native apoE2 (from UniProt P02649 19-317) (natural protein)” displayed a Kd in test [2] of 2 nM.
In the test with NT647-FH5-7 402Y (human), “apoE3 (from UniProt P02649 19-317) (natural protein)” came in with a Kd of 1380 nM.
As for “FH402H (from UniProt P08603 19-1231) (natural protein)”, in test [1], the equilibrium dissociation constant (Kd) was found to be 496 nM. That is a sub-micromolar value.
The substance “apoE2 (from UniProt P02649 19-317) (natural protein)” yielded a Kd with NT647-FH5-7 402Y (human) of 1000 nM.
